Laboratory results reported in patent publication US20210324050A1 (published 2021).

How the values were obtained:
[1] = molecular target: Glutathione S-transferase (GST)-tagged GII.4 Sydney 2012 P domain dimers; test: ELISA
[2] = molecular target: T1, GII.4 Houston 2002 (ABY27560.1) VLPs (UniProt P54635 1-539); test: VLP blockade
[3] = molecular target: T1, GII.4 Houston 2002 (ABY27560.1) VLPs; test: ELISA binding

Binder | EC50 [1] | EC50 [2] | EC50 [3]
NORO-315B (antibody, V domains shown) VH: QVQLVESGGGLVKPGGSLRLSCVASGFTFSDYYMTWFRQTPGRGLEWLSYISAIGGYTEYADSVKSRFIISRDNGKKSLYLQMNSLRAEDSGVYYCAREDCHGTSCYSGDWGQGTLVTVSS VL: QSVLTQPPSVSGAPGQRVTISCTGSSSNIGAGYDVHWYQQLPGTAPKLLIYHNTNRPSGVPDRFSGSKSGTSAYLTITGLQAEDEADYYCQSYDRSLSKSRVFSGGTKLTVL | 0.3 µg/mL | 2.2 µg/mL | 0.5 µg/mL
NORO-273A (antibody, V domains shown) VH: QVQLVQSGAEVKKPGASVKISCKASGYDFTSFPMHWVRLGPGQRLEWMGWISAANGNTKYSQKFQDRFTITRDTSASIVHMELSSLRSEDTAVYYCARGGYSSGLYRYSNYYYGMTVWGQGTLVTVSS VL: DIVMTQTPLSLSVTPGQPASISCKSSESLLHNDRKTYLFWYLQKPGQPPQLLIFQVSNRFSGVPDRFSGSGSGTDFTLRISRVEAEDVGIYYCLQTTQLPLTFGGGTKVEIK |  | 5.2 µg/mL | 
NORO-263 (antibody, V domains shown) VH: QVQLVESGGGLVKPGGSLRLSCAASGFTLSDYYMSWIRQAPGKGLEWVAYISSSHTSTYYRDSVKGRFTISRDSAKKSLYLQMNSLRVEDTAIYYCARDWVGGRSAYSDHWGQGTLVTVSS VL: SYELTQPPSVSVSPGQTARITCSGDALPRRPAFWYQQKSGQAPVLVMYDDSKRPSGIPERFSGSSSGTVATLTISGAQVEDEADYHCYSTDSSGKERVFGGGTKLTVL | 0.9 µg/mL | 2.1 µg/mL | 0.5 µg/mL
NORO-313.1 (antibody, V domains shown) VH: QVQLVESGGGLVKPGGSLRLSCAASGFTFSDFYMSWIRQAPGKGLEWVGYISSIAGATNYADSVKGRFTISRDSSKRSLYLQMNSLRVEDTAVYYCARMGRLELERRPHYYYPLDVWGQGTLVTVSS VL: not shown | 0.8 µg/mL | 2.1 µg/mL | 0.1 µg/mL
NORO-115 (antibody, V domains shown) VH: QVQLVESGGGLVKPGGSLRLSCTASGITISGYYMSWIRQAPGKGLEWIVYINTSGRTIYYADSVKGRFSVSRDNAKESLYLQMDSLTVDDTGIYYCARDRLPASGSHWFHPWGQGTLVTVSS VL: DIVMTQSPDSLAVSLGGRATINCKSSQSVLYTSDNKNYLAWYQQQPGQPPKLLISWASTRESGVPDRFSGSGSGTDFTLTISNLQAEDVAVYYCQQYYNSPLAFGGGTKVEIK | 0.1 µg/mL | 2.3 µg/mL | 1.1 µg/mL
NORO-303 (antibody, V domains shown) VH: QVQLVESGGGVVQPGRSLRLSCAASGFIFSSYAMHWVRQAPGKGLEWVAVMSYDGNNKYYADSVKGRFTISRDNSKNTLFLQMNSLRPEDTAVYYCARDCRVGWVFTYGMDVWGQGTLVTVSS VL: QSALTQPPSASGSPGQSVTISCTGTSSDVGGYNYVSWYQQHPGKAPKLMMYEISKRPSGVPIRFSGSKSGNTASLTVSGLQAEDEADYYCSSYAGTYNCVVFGGGTKLTVL | 6.8 µg/mL | > 100 µg/mL | 
NORO-123 (antibody, V domains shown) VH: QVQLVESGGGVVQPGRSLRLSCSTSGFTFSQYPMHWVRQAPGKGLEWVALISYDGMNKYYADSVRGRFTISRDNSENTQYLQMNSLRGDDTAVYYCARVTGDCTGNRCSYWAYYYYGLDVWGQGTLVTVSS VL: QSALTQPPSASGSPGQSVTISCTGTSSDVGGYKYVSWYQQHPGKAPKLMIYEVTRRPSGVPDRFSGSKSGNTAFLTVSGLQAEDEADYYCGSYAGSTTSGYVFGTGTKVIVL | 6.1 µg/mL | 2.5 µg/mL | 0.6 µg/mL
NORO-317 (antibody, V domains shown) VH: QVQLVESGGGLVKPGGSLRLSCVASGFTFSDYYISWVRQAPGKGLEWVSYISAINSYTNYADSVRGRFTVSRDNAKKSVFLQMNSLRVDDTAVYYCARDVGGSVRYSSNSNKKSYNYFDPWGQGTLVTVSS VL: SYELTQPPSVSVSPGQTATITCSGDVLSKEFAYWYQQKPGQAPVLVIYKDNERPSGIPERFSGSTSGTTVTLTISGVLAEDEAHYYCQSVDTRGTYKVFGGGTKLTVL | 0.2 µg/mL |  | 
